{
  "source": "patent US20040235098A1",
  "about": "“Sulfotransferase sequence variants” (Mayo Foundation for Medical Education and Research, a …, priority 1998, published 2004)",
  "proteins": {"B1": {"name": "SULT1A1*3 (Homo sapiens) (protein)", "chain": "MELIQDTSRPPLEYVKGVPLIKYFAEALGPLQSFQARPDDLLISTYPKSGTTWVSQILDMIYQGGDLEKCHRAPIFMRVPFLEFKAPGIPSGMETLKDTPAPRLLKTHLPLALLPQTLLDQKVKVVYVARNAKDVAVSYYHFYHMAKVHPEPGTWDSFLEKFMVGEVSYGSWYQHVQEWWELSRTHPVLYLFYEDMKENPKREIQKILEFVGRSLPEETVDFVVQHTSFKEMKKNPMTNYTTVPQEFMDHSISPFMRKGMAGDWKTTFTVAQNERFDADYAEKMAGCSLSFRSEL", "notes": "made in house; host or cells: COS-1 cells, pCR3.1 vector, unpurified cytosol"}, "B2": {"name": "SULT1A2*1 (Homo sapiens) (protein)", "chain": "MELIQDISRPPLEYVKGVPLIKYFAEALGPLQSFQARPDDLLISTYPKSGTTWVSQILDMIYQGGDLEKCHRAPIFMRVPFLEFKVPGIPSGMETLKNTPAPRLLKTHLPLALLPQTLLDQKVKVVYVARNAKDVAVSYYHFYHMAKVYPHPGTWESFLEKFMAGEVSYGSWYQHVQEWWELSRTHPVLYLFYEDMKENPKREIQKILEFVGRSLPEETVDLMVEHTSFKEMKKNPMTNYTTVRREFMDHSISPFMRKGMAGDWKTTFTVAQNERFDADYAKKMAGCSLSFRSEL", "notes": "as for B1"}, "B3": {"name": "SULT1A2*2 (Homo sapiens; I7T/N235T) (protein)", "chain": "MELIQDTSRPPLEYVKGVPLIKYFAEALGPLQSFQARPDDLLISTYPKSGTTWVSQILDMIYQGGDLEKCHRAPIFMRVPFLEFKVPGIPSGMETLKNTPAPRLLKTHLPLALLPQTLLDQKVKVVYVARNAKDVAVSYYHFYHMAKVYPHPGTWESFLEKFMAGEVSYGSWYQHVQEWWELSRTHPVLYLFYEDMKENPKREIQKILEFVGRSLPEETVDLMVEHTSFKEMKKTPMTNYTTVRREFMDHSISPFMRKGMAGDWKTTFTVAQNERFDADYAKKMAGCSLSFRSEL", "notes": "as for B1"}, "B4": {"name": "SULT1A2*3 (Homo sapiens; P19L) (protein)", "chain": "MELIQDISRPPLEYVKGVLLIKYFAEALGPLQSFQARPDDLLISTYPKSGTTWVSQILDMIYQGGDLEKCHRAPIFMRVPFLEFKVPGIPSGMETLKNTPAPRLLKTHLPLALLPQTLLDQKVKVVYVARNAKDVAVSYYHFYHMAKVYPHPGTWESFLEKFMAGEVSYGSWYQHVQEWWELSRTHPVLYLFYEDMKENPKREIQKILEFVGRSLPEETVDLMVEHTSFKEMKKNPMTNYTTVRREFMDHSISPFMRKGMAGDWKTTFTVAQNERFDADYAKKMAGCSLSFRSEL", "notes": "as for B1"}, "B5": {"name": "SULT1A3 (Homo sapiens) (protein)", "chain": "MELIQDTSRPPLEYVKGVPLIKYFAEALGPLQSFQARPDDLLINTYPKSGTTWVSQILDMIYQGGDLEKCNRAPIYVRVPFLEVNDPGEPSGLETLKDTPPPRLIKSHLPLALLPQTLLDQKVKVVYVARNPKDVAVSYYHFHRMEKAHPEPGTWDSFLEKFMAGEVSYGSWYQHVQEWWELSRTHPVLYLFYEDMKENPKREIQKILEFVGRSLPEETMDFMVQHTSFKEMKKNPMTNYTTVPQELMDHSISPFMRKGMAGDWKTTFTVAQNERFDADYAEKMAGCSLSFRSEL", "notes": "as for B1"}, "B6": {"name": "SULT1A1*1 (Homo sapiens) (protein)", "chain": "MELIQDTSRPPLEYVKGVPLIKYFAEALGPLQSFQARPDDLLISTYPKSGTTWVSQILDMIYQGGDLEKCHRAPIFMRVPFLEFKAPGIPSGMETLKDTPAPRLLKTHLPLALLPQTLLDQKVKVVYVARNAKDVAVSYYHFYHMAKVHPEPGTWDSFLEKFMVGEVSYGSWYQHVQEWWELSRTHPVLYLFYEDMKENPKREIQKILEFVGRSLPEETVDFVVQHTSFKEMKKNPMTNYTTVPQEFMDHSISPFMRKGMAGDWKTTFTVAQNERFDADYAEKMAGCSLSFRSEL", "notes": "as for B1"}},
  "type_in_all_cases": "biochemical, human",
  "key": {"[1]": {"substrate": "O=[N+]([O-])c1ccc(O)cc1", "test": "Substrate kinetics of recombinant SULT1A1*3", "conditions": "other: recombinant SULT1A1*3; 0.02 to 5.0 μM 4-nitrophenol; mean±SEM of nine", "method": "(§1) Unless otherwise stated, concentrations of 4-nitrophenol and PAPS were 4 μM and 0.4 μM, respectively. Substrate kinetic experiments were conducted in the presence of a series of concentrations of 4-nitrophenol and PAPS to make it possible to calculate apparent Km values. Enzyme activity was expressed as nmoles of sulfate conjugated product formed per hr of incubation. Protein concentrations were measured by the dye-binding method of Bradford with bovine serum albumin (BSA) as a standard.\n(§2) The concentration of 4-nitrophenol used to study each recombinant protein was the same as was used in the thermal stability experiments. All assays for the determination of apparent Km values, thermal stability or DCNP inhibition were performed in triplicate, and all experiments were performed at least three times, i.e., each of the data points shown subsequently represents the average of at least nine separate assays.\n(§3) Apparent Km values were calculated by using the method of Wilkion with a computer program written by Cleland. […] Statistical comparisons of data were performed by ANOVA with the StatView program, version 4.5 (Abacus Concepts, Inc., Berkeley, Calif.).\n(§4) Expression constructs for each of the common (frequencies≧1%) allozymes for SULT1A1 and SULT1A2 were used to transfect COS-1 cells. Selected biochemical and physical properties of the expressed enzymes were then determined. […]"}, "[2]": {"substrate": "O=[N+]([O-])c1ccc(O)cc1", "test": "Substrate kinetics of recombinant SULT1A2*1", "conditions": "other: recombinant SULT1A2*1; 0.08 to 10.0 μM 4-nitrophenol; mean±SEM of nine", "method": "as §1, §2, §3, §4"}, "[3]": {"substrate": "O=[N+]([O-])c1ccc(O)cc1", "test": "Substrate kinetics of recombinant SULT1A2*2", "conditions": "other: recombinant SULT1A2*2; 1.0 to 1000 μM 4-nitrophenol; mean±SEM of nine", "method": "as §1, §2, §3, §4"}, "[4]": {"substrate": "O=[N+]([O-])c1ccc(O)cc1", "test": "Substrate kinetics of recombinant SULT1A2*3", "conditions": "other: recombinant SULT1A2*3; 0.08 to 10.0 μM 4-nitrophenol; mean±SEM of nine", "method": "as §1, §2, §3, §4"}, "[5]": {"substrate": "O=[N+]([O-])c1ccc(O)cc1", "test": "Substrate kinetics of recombinant SULT1A3", "conditions": "other: recombinant SULT1A3; 3.9 to 3000 μM 4-nitrophenol; mean±SEM of nine"}, "[6]": {"substrate": "O=[N+]([O-])c1ccc(O)cc1", "test": "Substrate kinetics of recombinant SULT1A1*1", "conditions": "other: recombinant SULT1A1*1; 0.02 to 5.0 μM 4-nitrophenol; mean±SEM of nine", "method": "as §1, §2, §3, §4"}},
  "data": [
    {"protein": "B1", "values": [
      {"measurement": "Km", "setting": "[1]", "value": "0.31 ± 0.01", "unit": "µM"}
    ]},
    {"protein": "B2", "values": [
      {"measurement": "Km", "setting": "[2]", "value": "8.70 ± 1.10", "unit": "µM"}
    ]},
    {"protein": "B3", "values": [
      {"measurement": "Km", "setting": "[3]", "value": "373 ± 33", "unit": "µM"}
    ]},
    {"protein": "B4", "values": [
      {"measurement": "Km", "setting": "[4]", "value": "5.65 ± 1.14", "unit": "µM"}
    ]},
    {"protein": "B5", "values": [
      {"measurement": "Km", "setting": "[5]", "value": "4960 ± 810", "unit": "µM"}
    ]},
    {"protein": "B6", "values": [
      {"measurement": "Km", "setting": "[6]", "value": "0.88 ± 0.07", "unit": "µM"}
    ]}
  ]
}
